Results on one protein are retold here after FireProtDB (doi:10.1021/bi701495v).

The conditions of this series: Ajellomyces capsulatus (strain G186AR / H82 / ATCC MYA-2454 / RMSCC 2432); pH 6.5; 25 °C; Urea; CD; KH2PO4 0.01 M; KCl 0.1 M; reversible: Yes; whole UniProt chain shown.

B1: Calcium-binding protein wild type, O42720 (protein)
chain: MLFSKVIAPAFILLGAASAAPGGLAPENASKRDQPSVGDAFDKYNEAVRVFTQLSSAANCDWAACLSSLSASSAACIAAVGELGLDVPLDLACAATATSSATEACKGCLW
Turning to B1, the denaturant m value was 0.84 kcal/mol/M, the “denaturant midpoint (higher = more stable)” value stood at 3.4 M and the unfolding free energy stood at 2.9 kcal/mol.
